Assay results from patent US20230287118A1 (published 2023).
Positions count from the first letter of the chain named.

Experiments:
human CD20 [1] = target: T1, human CD20 (human, UniProt P11836 1-297); assay: cell-based or functional assay
T1 sequence (looked up): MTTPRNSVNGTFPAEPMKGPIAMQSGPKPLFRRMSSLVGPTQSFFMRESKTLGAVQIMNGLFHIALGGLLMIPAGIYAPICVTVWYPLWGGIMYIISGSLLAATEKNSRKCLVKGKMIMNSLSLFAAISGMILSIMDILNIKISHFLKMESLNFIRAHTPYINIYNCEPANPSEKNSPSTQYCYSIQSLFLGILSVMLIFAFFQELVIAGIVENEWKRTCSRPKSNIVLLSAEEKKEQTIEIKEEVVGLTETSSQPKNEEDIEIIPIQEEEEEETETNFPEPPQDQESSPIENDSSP

human CD20 [2] = target: T1, human CD20; assay: cell-based or functional assay; remark: listed apart in the source
human CD20 [3] = target: T1, human CD20; assay: cell-based or functional assay; remark: listed apart in the source
human CD20 [4] = target: T1, human CD20; assay: cell-based or functional assay; remark: listed apart in the source
human CD3 [5] = target: T2, human CD3 (human, UniProt P07766 23-207); assay: cell-based or functional assay
human CD3 [6] = target: T2, human CD3; assay: cell-based or functional assay; remark: listed apart in the source
human Her3 = human Her3 (human, UniProt P21860 20-1342); assay: cell-based or functional assay
[7] = target: T3, human MCSP (melanoma-associated chondroitin sulfate proteoglycan, chondroitin sulfate proteoglycan 4) (human, UniProt Q6UVK1 30-2322); assay: cell-based or functional assay
human CD3 [8] = target: T2, human CD3; assay: flow cytometry on Jurkat-NFAT cells
[9] = target: T3, human MCSP (melanoma-associated …); assay: flow cytometry on MCSP-expressing MV-3 cells

T3 sequence (Q6UVK1 30-2322): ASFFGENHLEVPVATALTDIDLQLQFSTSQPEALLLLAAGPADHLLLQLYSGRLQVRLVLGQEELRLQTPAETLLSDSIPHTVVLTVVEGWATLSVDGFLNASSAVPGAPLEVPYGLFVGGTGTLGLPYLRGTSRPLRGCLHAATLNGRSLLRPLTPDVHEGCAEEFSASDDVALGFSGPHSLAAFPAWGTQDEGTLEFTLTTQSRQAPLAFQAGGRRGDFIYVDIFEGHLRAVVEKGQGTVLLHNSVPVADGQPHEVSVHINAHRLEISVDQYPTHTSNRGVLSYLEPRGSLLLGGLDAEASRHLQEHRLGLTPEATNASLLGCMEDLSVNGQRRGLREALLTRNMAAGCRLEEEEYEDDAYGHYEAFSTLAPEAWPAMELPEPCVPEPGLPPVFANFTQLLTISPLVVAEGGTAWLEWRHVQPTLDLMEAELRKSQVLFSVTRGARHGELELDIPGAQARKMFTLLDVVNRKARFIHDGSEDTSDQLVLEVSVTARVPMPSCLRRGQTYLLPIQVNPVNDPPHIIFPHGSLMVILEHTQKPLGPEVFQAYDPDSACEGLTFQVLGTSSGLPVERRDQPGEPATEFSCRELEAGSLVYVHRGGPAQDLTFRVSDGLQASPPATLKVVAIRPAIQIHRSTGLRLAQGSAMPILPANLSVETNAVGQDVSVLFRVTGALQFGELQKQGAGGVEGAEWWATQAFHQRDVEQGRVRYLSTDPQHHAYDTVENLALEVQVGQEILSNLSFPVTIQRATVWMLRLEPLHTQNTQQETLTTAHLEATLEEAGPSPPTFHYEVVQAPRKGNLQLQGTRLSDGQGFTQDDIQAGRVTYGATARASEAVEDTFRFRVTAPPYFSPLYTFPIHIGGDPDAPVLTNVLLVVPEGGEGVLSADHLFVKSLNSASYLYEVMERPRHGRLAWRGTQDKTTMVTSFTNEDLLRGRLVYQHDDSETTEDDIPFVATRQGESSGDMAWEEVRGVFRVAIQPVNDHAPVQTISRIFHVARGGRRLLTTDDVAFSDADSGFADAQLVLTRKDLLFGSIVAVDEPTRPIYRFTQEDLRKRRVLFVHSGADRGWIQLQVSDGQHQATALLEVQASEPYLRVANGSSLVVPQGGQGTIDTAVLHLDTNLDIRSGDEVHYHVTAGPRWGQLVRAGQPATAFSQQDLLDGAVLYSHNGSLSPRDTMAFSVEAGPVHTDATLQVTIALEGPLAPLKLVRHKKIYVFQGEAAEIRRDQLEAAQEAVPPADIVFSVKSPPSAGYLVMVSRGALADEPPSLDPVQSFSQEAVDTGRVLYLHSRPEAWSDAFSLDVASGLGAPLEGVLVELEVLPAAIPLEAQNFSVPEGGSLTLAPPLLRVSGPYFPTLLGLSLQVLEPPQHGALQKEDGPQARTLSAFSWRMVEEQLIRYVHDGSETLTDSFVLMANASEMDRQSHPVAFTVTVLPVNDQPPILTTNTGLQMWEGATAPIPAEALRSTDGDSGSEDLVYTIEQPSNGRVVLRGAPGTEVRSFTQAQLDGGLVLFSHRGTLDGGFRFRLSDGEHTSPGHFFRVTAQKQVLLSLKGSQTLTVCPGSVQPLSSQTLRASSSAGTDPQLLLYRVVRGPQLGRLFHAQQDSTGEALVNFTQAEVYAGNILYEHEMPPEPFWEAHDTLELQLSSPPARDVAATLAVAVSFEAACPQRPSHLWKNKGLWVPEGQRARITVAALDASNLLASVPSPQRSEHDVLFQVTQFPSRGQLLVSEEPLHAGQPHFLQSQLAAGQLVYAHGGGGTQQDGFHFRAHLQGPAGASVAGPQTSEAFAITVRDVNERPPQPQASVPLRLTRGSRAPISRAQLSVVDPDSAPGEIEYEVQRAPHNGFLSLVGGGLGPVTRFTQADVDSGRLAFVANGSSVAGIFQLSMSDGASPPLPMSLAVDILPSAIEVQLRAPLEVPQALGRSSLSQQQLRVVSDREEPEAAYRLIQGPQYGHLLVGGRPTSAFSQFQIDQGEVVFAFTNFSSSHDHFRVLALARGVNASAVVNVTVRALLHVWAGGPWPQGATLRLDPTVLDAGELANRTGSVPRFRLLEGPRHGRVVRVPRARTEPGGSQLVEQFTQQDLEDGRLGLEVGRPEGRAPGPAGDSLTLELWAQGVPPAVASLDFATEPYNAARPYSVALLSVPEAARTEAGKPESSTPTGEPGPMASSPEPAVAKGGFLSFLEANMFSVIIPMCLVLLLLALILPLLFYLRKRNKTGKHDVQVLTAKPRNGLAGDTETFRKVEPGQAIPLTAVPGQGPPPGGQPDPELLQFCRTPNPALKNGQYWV

B1: anti-CD20/anti-CD3 TCB molecule H: "1+1 CrossMab" with charge modifications (VH/VL exchange in CD3 binder, charge modification in CD20 binder) (bispecific antibody, human IgG1, kappa, N297G)
heavy 1: not shown
heavy 2: QAVVTQEPSLTVSPGGTVTLTCGSSTGAVTTSNYANWVQEKPGQAFRGLIGGTNKRAPGTPARFSGSLLGGKAALTLSGAQPEDEAEYYCALWYSNLWVFGGGTKLTVLSSASTKGPSVFPLAPSSKSTSGGTAALGCLVKDYFPEPVTVSWNSGALTSGVHTFPAVLQSSGLYSLSSVVTVPSSSLGTQTYICNVNHKPSNTKVDKKVEPKSCDKTHTCPPCPAPELLGGPSVFLFPPKPKDTLMISRTPEVTCVVVDVSHEDPEVKFNWYVDGVEVHNAKTKPREEQYGSTYRVVSVLTVLHQDWLNGKEYKCKVSNKALPAPIEKTISKAKGQPREPQVYTLPPCRDELTKNQVSLWCLVKGFYPSDIAVEWESNGQPENNYKTTPPVLDSDGSFFLYSKLTVDKSRWQQGNVFSCSVMHEALHNHYTQKSLSLSP
light 1: DIVMTQTPLSLPVTPGEPASISCRSSKSLLHSNGITYLYWYLQKPGQSPQLLIYQMSNLVSGVPDRFSGSGSGTDFTLKISRVEAEDVGVYYCAQNLELPYTFGGGTKVEIKRTVAAPSVFIFPPSDRKLKSGTASVVCLLNNFYPREAKVQWKVDNALQSGNSQESVTEQDSKDSTYSLSSTLTLSKADYEKHKVYACEVTHQGLSSPVTKSFNRGEC
light 2: EVQLLESGGGLVQPGGSLRLSCAASGFTFSTYAMNWVRQAPGKGLEWVSRIRSKYNNYATYYADSVKGRFTISRDDSKNTLYLQMNSLRAEDTAVYYCVRHGNFGNSYVSWFAYWGQGTLVTVSSASVAAPSVFIFPPSDEQLKSGTASVVCLLNNFYPREAKVQWKVDNALQSGNSQESVTEQDSKDSTYSLSSTLTLSKADYEKHKVYACEVTHQGLSSPVTKSFNRGEC
Human CD20 [1]
  EC50 of tumor cell lysis (LDH release), Z138 cells + human PBMCs, 21-24 h, panel A: 17.5 pM
Human CD20 [2]
  EC50 24 h of CD4 T cell activation, Z138 cells (average of 3 donors): 122 pM
  EC50 24 h of CD8 T cell activation, Z138 cells (average of 3 donors): 175 pM
  EC50 24 h of tumor lysis, Z138 cells (average of 3 donors): 751 pM
Human CD20 [3]
  EC50 24 h of tumor lysis, Ocly-18 cells: 250 pM
  EC50 24 h of tumor lysis, SU-DHL-5 cells: 69.7 pM
  EC50 24 h of tumor lysis, SU-DHL-8 cells: 219 pM
  EC50 24 h of tumor lysis, Toledo cells: 120 pM
  EC50 24 h of tumor lysis, U2932 cells: 72.7 pM
Human CD20 [4]
  EC50 24 h of B cell depletion in normal human whole blood: 3.75 nM
Human CD3 [5]
  EC50 of CD3 activation, Jurkat-NFAT reporter cells co-cultured with Z138 cells (luminescence, 6 h): 1000 pM

B2: anti-Her2/anti-CD3 "2+1 IgG CrossFab, inverted" molecule with charge modifications (Her2 TCB) (bispecific antibody)
chain 1: not shown
chain 2: not shown
chain 3: not shown
light: B1 light 2
Human CD3 [6]
  EC50 of activation of Jurkat-NFAT reporter cells co-cultured with KPL4 cells (luminescence, 5 h): 34.4 pM

B3: anti-CD20/anti-CD3 TCB molecule A: "2+1 IgG CrossFab, inverted" without charge modifications (CH1/CL exchange in CD3 binder) (bispecific antibody)
chain 1: not shown
chain 2: QVQLVQSGAEVKKPGSSVKVSCKASGYAFSYSWINWVRQAPGQGLEWMGRIFPGDGDTDYNGKFKGRVTITADKSTSTAYMELSSLRSEDTAVYYCARNVFDGYWLVYWGQGTLVTVSSASTKGPSVFPLAPSSKSTSGGTAALGCLVKDYFPEPVTVSWNSGALTSGVHTFPAVLQSSGLYSLSSVVTVPSSSLGTQTYICNVNHKPSNTKVDKKVEPKSCDKTHTCPPCPAPEAAGGPSVFLFPPKPKDTLMISRTPEVTCVVVDVSHEDPEVKFNWYVDGVEVHNAKTKPREEQYNSTYRVVSVLTVLHQDWLNGKEYKCKVSNKALGAPIEKTISKAKGQPREPQVCTLPPSRDELTKNQVSLSCAVKGFYPSDIAVEWESNGQPENNYKTTPPVLDSDGSFFLVSKLTVDKSRWQQGNVFSCSVMHEALHNHYTQKSLSLSP
chain 3: QAVVTQEPSLTVSPGGTVTLTCGSSTGAVTTSNYANWVQEKPGQAFRGLIGGTNKRAPGTPARFSGSLLGGKAALTLSGAQPEDEAEYYCALWYSNLWVFGGGTKLTVLSSASTKGPSVFPLAPSSKSTSGGTAALGCLVKDYFPEPVTVSWNSGALTSGVHTFPAVLQSSGLYSLSSVVTVPSSSLGTQTYICNVNHKPSNTKVDKKVEPKSC
chain 4: B1 light 1 with R128E, K129Q
Human CD20 [1]
  EC50 of tumor cell lysis (LDH release), Z138 cells + human PBMCs, 21-24 h, panel A: 0.76 pM

B4: anti-CD20/anti-CD3 TCB molecule C: "2+1 IgG CrossFab" with charge modifications (VH/VL exchange in CD3 binder, charge modification in CD20 binders) (bispecific antibody)
heavy 1: not shown
heavy 2: B3 chain 2 with K149E, K215E
light 1: B1 light 1
light 2: B1 light 2
Human CD20 [1]
  EC50 of tumor cell lysis (LDH release), Z138 cells + human PBMCs, 21-24 h, panel B: 43.3 pM

B5: anti-Her3/anti-CD3 "2+1 IgG CrossFab" molecule with charge modifications (Her3 TCB) (bispecific antibody)
chain 1: not shown
chain 2: QVQLVQSGAEVKKPGASVKVSCKASGYTFRSSYISWVRQAPGQGLEWMGWIYAGTGSPSYNQKLQGRVTMTTDTSTSTAYMELRSLRSDDTAVYYCARHRDYYSNSLTYWGQGTLVTVSSASTKGPSVFPLAPSSKSTSGGTAALGCLVEDYFPEPVTVSWNSGALTSGVHTFPAVLQSSGLYSLSSVVTVPSSSLGTQTYICNVNHKPSNTKVDEKVEPKSCDKTHTCPPCPAPEAAGGPSVFLFPPKPKDTLMISRTPEVTCVVVDVSHEDPEVKFNWYVDGVEVHNAKTKPREEQYNSTYRVVSVLTVLHQDWLNGKEYKCKVSNKALGAPIEKTISKAKGQPREPQVCTLPPSRDELTKNQVSLSCAVKGFYPSDIAVEWESNGQPENNYKTTPPVLDSDGSFFLVSKLTVDKSRWQQGNVFSCSVMHEALHNHYTQKSLSLSP
chain 3: not shown
light: B1 light 2
Human CD3 [6]
  EC50 of activation of Jurkat-NFAT reporter cells co-cultured with KPL4 cells (luminescence, 5 h): 22 pM
Human Her3
  EC50 of Caspase 3/7 activity (luminescence) in KPL-4-Caspase-3/7 GloSensor target cells + PBMCs, 6.5 h: 0.7 pM
  EC50 of tumor cell lysis (LDH release), KPL4 cells + human PBMCs, 24 h: 2.54 pM
  EC50 of tumor cell lysis (LDH release), KPL4 cells + human PBMCs, 48 h: 0.53 pM

B6: anti-MCSP/anti-CD3 "(Fab)2-CrossFab" molecule with charge modifications in the MCSP binders ((Fab)2-XFab-LC007cv) (bispecific antibody)
chain 1: EVQLQESGPGLVKPSQSLSLTCSVTGYSITSGYYWNWIRQFPGNKLEWMGYITYDGSNNYNPSLKNRISITRDTSKNQFFLKLNSVTTEDTATYYCADFDYWGQGTTLTVSSASTKGPSVFPLAPSSKSTSGGTAALGCLVEDYFPEPVTVSWNSGALTSGVHTFPAVLQSSGLYSLSSVVTVPSSSLGTQTYICNVNHKPSNTKVDEKVEPKSCDGGGGSGGGGSEVQLQESGPGLVKPSQSLSLTCSVTGYSITSGYYWNWIRQFPGNKLEWMGYITYDGSNNYNPSLKNRISITRDTSKNQFFLKLNSVTTEDTATYYCADFDYWGQGTTLTVSSASTKGPSVFPLAPSSKSTSGGTAALGCLVEDYFPEPVTVSWNSGALTSGVHTFPAVLQSSGLYSLSSVVTVPSSSLGTQTYICNVNHKPSNTKVDEKVEPKSCDGGGGSGGGGSDIQMTQSPSSLSASVGDRVTITCRASQDIRNYLNWYQQKPGKAPKLLIYYTSRLESGVPSRFSGSGSGTDYTLTISSLQPEDFATYYCQQGNTLPWTFGQGTKVEIKSSASTKGPSVFPLAPSSKSTSGGTAALGCLVKDYFPEPVTVSWNSGALTSGVHTFPAVLQSSGLYSLSSVVTVPSSSLGTQTYICNVNHKPSNTKVDKKVEPKSC
chain 2: EVQLVESGGGLVQPGGSLRLSCAASGYSFTGYTMNWVRQAPGKGLEWVALINPYKGVSTYNQKFKDRFTISVDKSKNTAYLQMNSLRAEDTAVYYCARSGYYGDSDWYFDVWGQGTLVTVSSASVAAPSVFIFPPSDEQLKSGTASVVCLLNNFYPREAKVQWKVDNALQSGNSQESVTEQDSKDSTYSLSSTLTLSKADYEKHKVYACEVTHQGLSSPVTKSFNRGEC
chain 3: DIVLTQSPSSLSASLGDRVTISCSASQGIRNYLNWYQQRPDGTVKLLIYYTSSLHSGVPSRFSGSGSGTDYSLTISNLEPEDIATYYCQQYSKLPWTFGGGTKLEIKRTVAAPSVFIFPPSDRKLKSGTASVVCLLNNFYPREAKVQWKVDNALQSGNSQESVTEQDSKDSTYSLSSTLTLSKADYEKHKVYACEVTHQGLSSPVTKSFNRGEC
notes: The chains are one heavy chain, the anti-MCSP Fab light chain (twice); No Fc domain
[7]
  EC50 of tumor cell lysis (LDH release), MV-3 cells + human PBMCs, 24 h: 2.8 pM
  EC50 of tumor cell lysis (LDH release), MV-3 cells + human PBMCs, 48 h: 8.6 pM
Human CD3 [8]
  binding result: binds
[9]
  EC50: 2.3 nM
